pKd: −log10 of the molar value.
What was measured:
Assay in all cases: SPR
[1] = biological target: IgG1 Fc fragment (prepared by IdeS digest of bevacizumab) (human)
[2] = biological target: recombinant Fab fragment of trastuzumab (human) [IgG part: P01857]
[3] = biological target: trastuzumab (Herceptin) (human) (UniProt P01834)

Substance | pKd [1] | pKd [2] | pKd [3]
Azo-ProtG (wild-type C2 domain of streptococcal protein G with N-terminal Azo-tag and C-terminal Strep-tag II) (domain or fragment) | 6.30 | 4.71 | –
Azo-ProtG^N478R (C2 domain of streptococcal protein G with Asn478 replaced by Arg, N-terminal Azo-ta (domain or fragment) | 6.17 | < 3.59 | 6.34

From publication PMC12579241
